From the DeepSol protein solubility set

Experiment: soluble on expression in E. coli; label from the status in PepcDB or PDB records

| Sequence | soluble on expression in E. coli |
| --- | --- |
| MNVLICQQPKELVWKQREIPIPGDNEALIKIKSVGICGTDIHAWGGNQPFFSYPRVLGHEICGEIVGLGKNIADLKNGQQVAVIPYVACQQCPACKSGRTNCEKISVIGVHQDGGFSEYLSVPVANILPADGIDPQAAALIEPFAISAHAVRRAAIAPGEQVLVVGAGPIGLGAAAIAKADGAQVVVADTSPARREHVATRLELPLLDPSAEDFDAQLRAQFGGSLAQKVIDATGNQHAMNNTVNLIRHGGTVVFVGLFKGELQFSDPEFHKKETTMMGSRNATPEDFAKVGRLMAEGKITADMMLTHRYPFATLAETYERDVINNRELIKGVITF | not soluble |
| MNVLIVGSGGREHALAWKMKQSPKVKNVIVAPGNGGHSERIDINSNDLDAVADFCEKHNIHCVLIGPEEPLSNGLADHLIRIHPNLMVFGPLKDGAQLETSKSFSKHFMKEYGLPTADFVTVSIENVKSLDCVFERLPWKNSVVKADGLAAGKGVIIPRNNAEAVEAARSILHGQFGNAGRTVIIEERLEGYEVSALAFTDGISFKRMPLGKDHKRLLESDLGPNTGMGVVAPVSVPKEVDRQIDEIFEKTLKGLADRKIKYCGVLYAGFMIVDQKPLLLEFNCRFGDPETQVLMRLLESDLFEIISSCVNQTLNTCDINWSTKSVCGVVLASGNYPKSGDKGSPITEIPSPDSTNVVFHAGTSVINSQIVTNGGRILCVTSLADTLHDAREHANKIAQNIQFTGKQFRKDIGKTIDIGTPSLSYGSSGVNIDEGNQFVEDIKLLVKKTLLPGAAQIGGFGAVLDLKKAGFSNDSQLVVGIDGVGTKIEVATHCNNFTGVGYDVVAMCVNDVICHCAKPIAFLDYFVCGKLERSMATQVLTSISEACVEAECSLIGGETAEMPGVYSTHQWDLAGCAIAARESTWPMLPLSSEIRDGDVILGLPSSGLHSNGFSLARKILTVNGVKYNDPLPWDSKSTFGTELLRGTKLYVKKVLPLLSTGLVKGCAHITGGGLTENAIRVLDKNSKDSLVIDCASWKFREIFNWMAAAGPVDTKEMIRTFNCGIGMVLIVSPDNVEKVKKQLRKHEEEFYEIGHVENSKNGEAIKFVNEEKMFQREKYTTQRKRVRVAILISGTGTNMQKLIERSKTPDSNCDVVLVVSNKEGAGGLTIAASYGIPTKVVPHTADRVTGDTELAQVLKDFGTELVCLGGYMRILSPCFISQFPSRIINIHPSLLPAFKGAHALQDALNFGVRIVGCTAHFVDELVDHGDIIAQRPVVVEDTDTIETVRQKIQLQEHEMFPNAMIAVAAKILEK | not soluble |
| MNVLKQQITASIAKDIAFRLGAELNDEEADIFADGYNAAMLQNCNVVTSGKPLTITLPDTSSKAFWSSTGKNETFHPETYKRQVKEAIERSCVIAGIGVEVK | not soluble |
| MNVPSTSSTRGYAKYQIRSSGMPRVLANESDVFTLDDVDVDEETDELKPNRITITKEEEKSRLVECNLDSDEEEDKTPPKEDDKGQNIRLSSKNSSTVESKERCRLRDSFDLDNDDSLSDDLDLLPPIPGAPNANSSLCSKLHRFNCCNPRIPSKCTIM | soluble |
| MNVTFETTICAWDEKIPALLIRLVNTLLFCRTEEELRQSINKLRETAELDEFFTYGYGSHHFWCNQRISKGSMQFIQSRLFIATF | not soluble |
| MNVTIYDVAREASVSMATVSRVVNGNPNVKPSTRKKVLETIERLGYRPNAVARGLASKKTTTVGVIIPDISNIFYAELARGIEDIASMYKYNIILSNSDQNQDKQLHLLNNMLGKQVDGIIFMSGNVTEEHVEELKKSPVPVVLAASIESTNQIPSVTIDYEQAAFDAVQSLIDSGHKNIAFVSGTLEEPINHAKKVKGYKRALTESGLPVRDSYIVEGDYTYDSGIEAVEKLLEEDEKPTAIFVGTDEMALGVIHGAQDRGLNVPNDLEIIGFDNTRLSTMVRPQLTSVVQPMYDIGAVAMRLLTKYMNKETVDSSIVELPHRIEFRQSTK | soluble |
| MNVVLVGTDPNGLTDALEAEGHTVMVADVGNRPGLEEAGIHEADVYLLTEMSQATSIAVAKDLNPDLRVVVYAEGSLPDFASRQTDLVVDPDLLGSDAVAEEL | not soluble |
| MNWKQEFSRWLSYAELDAELKEQLENMKQDEKKIEDSFYKNLEFGTGGMRGELGAGTNRLNVYTVRKATQGLAKFIEKLGEEAKKRGVVVAYDSRHKSPEFAMEVAATLGAHGITTYVFESLRPTPVLSFAVRHLHTVSGIVLTASHNPPEYNGYKVYGEDGGQLPPKEADELISYVNAVEDELTVEVADVEQLKADGLLHMIGQEVDDAYAAELNNVIINKEMVQKVGKDLKIVFTPLHGTSNLSVRRGLAEVGFTDVTVVKEQELPDPNFSTVKSPNPEEHAAFEYAIRDGEKVGADVLIATDPDADRLGVAVRNHDGEFQVLTGNQTGALMLDYLLSQKKENGTLPENGVVLKTIVTSEIGRTIAKAYGLDTVDTLTGFKFIGEKIKQYEESGQYEFQFGYEESYGYLIRPFCRDKDAVQSVLFACEVAAYYKSQGKTLYDGLLEVFEKYGFFREDLVSLTLKGKDGAEQIQEMMATFRENPPKEVAGLTVVAVEDYKASIITSLQDGHKEEIHLPKSNVLKYQLEDGSWFCLRPSGTEPKIKFYFGVQDNSLQNSEQKLLTIKEDIMNRL | not soluble |
| MNWLDICSLDEINPLGSRVVAGPKGDIAIFRAADDQVFALDDRCPHKGGPLSQGLIYGKRVACPLHNWQIELESGEAVAPDQGCAHRHPVRVENGRVLLGLDSVALCA | not soluble |
| MNYELMEPAKQARFCVIWLHGLGADGHDFVDIVNYFDVSLDEIRFIFPHADIIPVTINMGMQMRAWYDIKSLDANSLNRVVDVEGINSSIAKVNKLIDSQVNQGIASENIILAGFSQGGIIATYTAITSQRKLGGIMALSTYLPAWDNFKGKITSINKGLPILVCHGTDDQVLPEVLGHDLSDKLKVSGFANEYKHYVGMQHSVCMEEIKDISNFIAKTFKI | not soluble |
| MNYHTFCPISCVSWLYQKIEDSFFLVIGTKTCGYFLQNAMGVMIFAEPRYAMAELEEGDISAQLKDYEELKRLCLQIKRDRNPSVIVWIGTCTTEIIKMDLEGLAPQLEAEIGIPIVTARANGLDYAFTQGEDTVLASMAHKCPTSAQVQGEDKELEHHHHHH | soluble |
| MNYIRKLYKQDYRGFESLPHRRENVIEKYSVKSQRPLLKKYLVEDFGGMCIYCGWNCKRYDAASFHIEHIKSQIDNESLIDDYSNLALSCPICNTTKNKKALPSDLDPLGEDYKNLFYRNNRGAIVTNNDIEDRKKALSQQYIKILGLSKELYKLDYVQTSLNIIKRRLRQSDKINLELINSITEILDFIDDNYTRQSNLTLLEHHHHHH | not soluble |
| MNYKSCFDIIGPIMIGPSSSHTAGALAIGLAARKLFGGTPEKIVIKYYESFADTHKGHGTDFAIIGGILGLAADDANVTQSIELAEEQGIEIQFLEMSEESPVKHANTACVTLSDATHEIHLTGISVGGGTIEVKYIELDGFNVQLHGPLPILLVINQEEQAMQAFKDTLQKNNIQVNAVSRYVEGNQILFIFDLDSAPISSVKEQLFSLDDTSKIILL | not soluble |
| MNYLQYYPTDVINGEGTRCTLFVSGCTHACKGCYNQKSWSFSAGVLFDDVMEQQIINDLKDTRIKRQGLTLSGGDPLHPLNVETLLPFVQRVKRECPDKDIWVWTGYKLDELDKQQRAMLPYIDVLIDGKFIQEQADPSLVWRGSANQIIHRFKLLEHHHHHH | soluble |
| MNYSPKQGVRSHGLPHDPFKSSTVPRPIGWISTVSKDGKDNLAPYSQYQNLTWDPPMVMFAANQSVLGDHERKDTVKNAEETGWFVWNMATYDLREAVNLSSKALPPEEDEFEYAGVTKEACIEAPGYRVKESPVHFECEYVQTIRIPTGDPVSTVDIVIGRVAQVHIDDKVILDNGKLDIKSIKPIARLGYYDYTVVNEIFEMKAPAASKEELAGLEGRNFDNQSDEKR | not soluble |
| MPAIEVIRSAKRTKTVQARIVDGQIQVRIPARMSKAEEEKAVGEIVAKLKRRTQSAVSSDADLIERAHKLNKTVLEGRARVESIRWVSNQKGRWGSCTVATAEIRISDRLKHVPDYVLDAVLVHELTHTFIAGHSAEFWEWADKTPLAERAKGYLEAYQRWGLEHHHHHH | soluble |
| MPAISMFYGIVIYLYFYDDERHKIPHIHAKYQGEDASVSIANGEILAGDIPLSKLRLVQAWIEIHRDALMADWALAVNGQPPFAIEPLRLEHHHHHH | not soluble |
| MPAIVCQSALEAVSLIRSGETLWTHSMGATPKVLLDALAKHALTLDNITLLQLHTEGAESLSHPSLLGHLRHRCFFGGVPTRPLLQSGDADYVPIFLSEVPKLFRSGEQKIDTAIIQVSPPDKHGMCSLGISVEATLAACQVAGKIIAHINPQMPRTHGDGFIHIDRFAAVYEQSASLPIHSFATGDAVSLAIGQHVAELVRDGDCLQMGIGAIPDAVLSCLTGHKDLGVHTELFSDGILQLVEKGVINNTKKRFYPGKLVTGFALGSQKLYDYVDDNPAVIFMDIEQVNDTSIIRKNPNVMAINSALQVDLTGQVCADSIGTKIYSGVGGQMDFIRGAGLSEGGRSVIALPSTAAGGRISRIASVLSPGAGVVTTRAHVHYIVTEYGAANLKGRSLRERAQALINIAHPDFREQLSRDAFEVWGLNLLEHHHHHH | soluble |
| MPAKSSSRTSATSSRRTILRLKVIPWERIISPFPSERGGSMSSLGIDIGGANLKVASKDGWEIIYFPMWREAERLEGKLREIAEKYSTAKAGVVMTAELADFFKSRAEGVEFIAKACKKAFEDVRFLDVEGNLKSDIDNPENFAASNWVASCRFLLEEAYRNFLFVDMGSTTTDIIPVTSKIEAAKTDFERLKRGELIYFGVLRTPVFYVLKEFEGAPLCPEFFAITADVFVTTGDIKEEDYSCDTPDGKGRSREECMRRLARTVCSDLEELGEEKVKELALEAKWAMIDRLSEVIEHKSKIYGLKTVFACGIGEFLIAEACEEAGAECRLISELYGDYSKLFPAYAMLKLVEQHLEHHHHHH | not soluble |
| MPANELFGDSDPEGDEIFERVRKVQPKSINVTENQKVDPMRKVKIELQAVLVAEKIPISTEEIRRRLLDSYGACPDPKRYNCSTLDDLLQACSESIVHTFGRDGIHRYGPRTTEANQDIIEMVQQQSSSKRPARSFLGSGATNNLSTHGSSFRAFRGPYASEEIAKSRGTPEQFKARHKLGPAKTISRVKNLAEVLKEYADEIGVSHPDEPNRKIVTLAALANKFKQLYCLPAWGKNISESELYIQLNVPPFNEYLHFWRLSEKGDIFVDCIDRDNADPTQKSEQNPSADVSIQSESFGGKSSASAFEQSVVSAPSTIRDQTSDSFDGFNSFEVPPENGSKDSKIFNSNQESIDDYPGNAISRDRTADMTDIALRFGTVSVASQQCPVSSSLVPQNGILRQSRAQEDDNNTSILTIQSSRRNHSVLRHRTIKPRNPTQNLAEVVKTHGSIPYEALSDCDKIIVDLGKNIFKVYATQPGEMMVRLCDPHVDTTTLPLLENNLRDPVESDLRWMTLGNSHIKKQSVKVVKPAMFIAPRGFLLILKDEEREEMDVEKVATMGNILRAVMVAPIVELQRETVRTGSAAVYVYRQGAEVRYYRVLIVGQAKQDGEVLVLLADVDDQYFVDVHLSHLFPIPEEASFKHFPSNVVFATLHGVLGLTLSEQDVMFENIDNDDTKRFVGGYFHGNDDRILNIDMVWKNERGQFEWLSQIVKRRGAVTSSDANIIHFPHSALDVIKSVGPDCSVCFVDYSVRDESATSSLMESTRIVHDSRESMTTTYVGEMPSPIIEEIDATSSFDPKLLNLHSLFDKLIEEQNVTMIVGMFQFVRSLKDLFGDNNEWERLLTYMLTTGKNNNIRL | not soluble |
| MPAYHSKFDTELKVLPLGNTNMGKLPIRTNFKGPAPQTNQDDIIDEALTYFKPNIFFREFEIKGPADRTMIYLIFYITECLRKLQKSPNKIAGQKDLHALALSHLLPIPGENGFPLNSMYKAPQSKPDEDEMRAYLQQIRQEIGARLCDLAFPDPQDRPSKWWLCFARRRFMDKGLVGQGVNL | soluble |
| MPCDFPGCGRIFSNRQYLNHHKKYQHIHQKSFSCPEPACGKSFNFKKHLKEHMKLHSDTRDYICEF | soluble |
